Measurements published in PMC5356271, “Identification of a tripartite interaction between the N-terminus of HIV-1 Vif and CBFβ that is critical for Vif function” (Retrovirology, 2017).
Where a chain is given by its changes, count along the chain named. Numbers in names are those of the source.

B1: HIV-1 Vif, wild type (natural protein)
chain: not shown
notes: HIV-1 Vif; Untagged; also called WT Vif; source: 293T, transfected, in lysate
B2: HIV-1 Vif 9IVW11 > A3 (triple-alanine substitution mutant) (natural protein)
chain: not shown
notes: HIV-1 Vif; Untagged; also called 9IVW11 > 3A; source: 293T, transfected, in lysate
B3: HIV-1 Vif W11A (natural protein)
chain: not shown
B4: HIV-1 Vif V7A–M8A (natural protein)
chain: not shown
B5: HIV-1 Vif 5WQVM8 > A4 (quadruple-alanine substitution mutant) (natural protein)
chain: not shown
notes: HIV-1 Vif; Untagged; also called 5WQVM8 > 4A; source: 293T, transfected, in lysate

Legend:
Flag-CBFβ I55D–F68D = target: T1, Flag-CBFβ I55D–F68D (UniProt Q13951 1-170, I55D | F68D); assay: co-IP; 293T cells co-transfected with Flag-CBFβ (4 μg) and untagged Vif (4 μg); lysates after 48 h; anti-Flag immunoprecipitation; co-precipitated Vif quantified by western blot (Odyssey) relative to wild type set to 100%; for the CBFβ mutants endogenous CBFβ was first knocked down by siRNA against the 3' UTR (Fig. 5, 7) and cells were treated with MG132 (5 μM, 16 h) in Fig. 7; settings: partners not purified
T1 construct: source: 293T, transfected, in lysate
T1 sequence: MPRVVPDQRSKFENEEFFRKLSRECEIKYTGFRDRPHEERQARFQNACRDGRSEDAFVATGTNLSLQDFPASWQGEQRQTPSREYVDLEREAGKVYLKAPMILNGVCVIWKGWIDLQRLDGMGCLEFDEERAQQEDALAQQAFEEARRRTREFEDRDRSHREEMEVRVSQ

Flag-CBFβ I55A–F68D = target: T2, Flag-CBFβ I55A–F68D (UniProt Q13951 1-170, I55A | F68D); assay: as above; settings: partners not purified
T2 construct: source: 293T, transfected, in lysate
T2 sequence: T1 sequence with D55A

Flag-CBFβ I55D = target: T3, Flag-CBFβ I55D (UniProt Q13951 1-170, I55D); assay: as above; settings: partners not purified
T3 construct: source: 293T, transfected, in lysate
T3 sequence: T1 sequence with D68F

Flag-CBFβ F68D = target: T4, Flag-CBFβ F68D (UniProt Q13951 1-170, F68D); assay: as above; settings: partners not purified
T4 construct: source: 293T, transfected, in lysate
T4 sequence: T1 sequence with D55I

[1] = target: T5, Flag-CBFβ (core-binding factor β), wild type (UniProt Q13951 1-170); assay: as above; settings: partners not purified
T5 construct: Flag-CBFβ expression plasmid obtained from Addgene; plasmid number not given; also called CBFβ-WT; WT CBFβ; source: 293T, transfected, in lysate
T5 sequence: T1 sequence with D55I, D68F

[2] = target: T5, Flag-CBFβ (core-binding factor β), wild …; assay: cell-based or functional assay

| Binder | binding efficiency relative to WT Vif (100%) [1] [%] | infectivity of virus produced with A3G in CBFβ-depleted (siRNA) 293T cells, relative to WT Vif with control siRNA (100%) [2] [%] | also measured |
| --- | --- | --- | --- |
| B1 |  |  | binding efficiency relative to CBFβ-WT (100%) (Flag-CBFβ I55D–F68D): ~8%; binding efficiency relative to CBFβ-WT (100%) (Flag-CBFβ I55A–F68D): ~8%; binding efficiency relative to CBFβ-WT (100%) (Flag-CBFβ I55D): ~15%; binding efficiency relative to CBFβ-WT (100%) (Flag-CBFβ F68D): ~28% |
| B2 | 0.3 |  |  |
| B3 |  | 4 |  |
| B4 |  | 8 |  |
| B5 | 2 |  |  |
